Data taken from paper doi:10.1101/2022.01.05.475133 (bioRxiv, 2022).

B1: Strep-MBP-R919* human TRPA1 (domain or fragment, UniProt O75762 1-918, looked up)
chain: MKRSLRKMWRPGEKKEPQGVVYEDVPDDTEDFKESLKVVFEGSAYGLQNFNKQKKLKRCDDMDTFFLHYAAAEGQIELMEKITRDSSLEVLHEMDDYGNTPLHCAVEKNQIESVKFLLSRGANPNLRNFNMMAPLHIAVQGMNNEVMKVLLEHRTIDVNLEGENGNTAVIIACTTNNSEALQILLKKGAKPCKSNKWGCFPIHQAAFSGSKECMEIILRFGEEHGYSRQLHINFMNNGKATPLHLAVQNGDLEMIKMCLDNGAQIDPVEKGRCTAIHFAATQGATEIVKLMISSYSGSVDIVNTTDGCHETMLHRASLFDHHELADYLISVGADINKIDSEGRSPLILATASASWNIVNLLLSKGAQVDIKDNFGRNFLHLTVQQPYGLKNLRPEFMQMQQIKELVMDEDNDGCTPLHYACRQGGPGSVNNLLGFNVSIHSKSKDKKSPLHFAASYGRINTCQRLLQDISDTRLLNEGDLHGMTPLHLAAKNGHDKVVQLLLKKGALFLSDHNGWTALHHASMGGYTQTMKVILDTNLKCTDRLDEDGNTALHFAAREGHAKAVALLLSHNADIVLNKQQASFLHLALHNKRKEVVLTIIRSKRWDECLKIFSHNSPGNKCPITEMIEYLPECMKVLLDFCMLHSTEDKSCRDYYIEYNFKYLQCPLEFTKKTPTQDVIYEPLTALNAMVQNNRIELLNHPVCKEYLLMKWLAYGFRAHMMNLGSYCLGLIPMTILVVNIKPGMAFNSTGIINETSDHSEILDTTNSYLIKTCMILVFLSSIFGYCKEAGQIFQQKRNYFMDISNVLEWIIYTTGIIFVLPLFVEIPAHLQWQCGAIAVYFYWMNFLLYLQRFENCGIFIVMLEVILKTLLRSTVVFIFLLLAFGLSFYILLNLQDPFSSPLLSIIQTFSMMLGDINY
B2: GFP-tagged WT human TRPA1 (natural protein, UniProt O75762 1-1119, looked up)
chain: MKRSLRKMWRPGEKKEPQGVVYEDVPDDTEDFKESLKVVFEGSAYGLQNFNKQKKLKRCDDMDTFFLHYAAAEGQIELMEKITRDSSLEVLHEMDDYGNTPLHCAVEKNQIESVKFLLSRGANPNLRNFNMMAPLHIAVQGMNNEVMKVLLEHRTIDVNLEGENGNTAVIIACTTNNSEALQILLKKGAKPCKSNKWGCFPIHQAAFSGSKECMEIILRFGEEHGYSRQLHINFMNNGKATPLHLAVQNGDLEMIKMCLDNGAQIDPVEKGRCTAIHFAATQGATEIVKLMISSYSGSVDIVNTTDGCHETMLHRASLFDHHELADYLISVGADINKIDSEGRSPLILATASASWNIVNLLLSKGAQVDIKDNFGRNFLHLTVQQPYGLKNLRPEFMQMQQIKELVMDEDNDGCTPLHYACRQGGPGSVNNLLGFNVSIHSKSKDKKSPLHFAASYGRINTCQRLLQDISDTRLLNEGDLHGMTPLHLAAKNGHDKVVQLLLKKGALFLSDHNGWTALHHASMGGYTQTMKVILDTNLKCTDRLDEDGNTALHFAAREGHAKAVALLLSHNADIVLNKQQASFLHLALHNKRKEVVLTIIRSKRWDECLKIFSHNSPGNKCPITEMIEYLPECMKVLLDFCMLHSTEDKSCRDYYIEYNFKYLQCPLEFTKKTPTQDVIYEPLTALNAMVQNNRIELLNHPVCKEYLLMKWLAYGFRAHMMNLGSYCLGLIPMTILVVNIKPGMAFNSTGIINETSDHSEILDTTNSYLIKTCMILVFLSSIFGYCKEAGQIFQQKRNYFMDISNVLEWIIYTTGIIFVLPLFVEIPAHLQWQCGAIAVYFYWMNFLLYLQRFENCGIFIVMLEVILKTLLRSTVVFIFLLLAFGLSFYILLNLQDPFSSPLLSIIQTFSMMLGDINYRESFLEPYLRNELAHPVLSFAQLVSFTIFVPIVLMNLLIGLAVGDIAEVQKHASLKRIAMQVELHTSLEKKLPLWFLRKVDQKSTIVYPNKPRSGGMLFHIFCFLFCTGEIRQEIPNADKSLEMEILKQKYRLKDLTFLLEKQHELIKLIIQKMEIISETEDDDSHCSFQDRFKKEQMEQRNSRWNTVLRAVKAKTHHLEP

What was measured:
FLAG-MBP-WT human TRPA1 = FLAG-MBP-WT human TRPA1 (human, UniProt O75762 1-1119); test: pull-down + co-IP
SEC = biological target: the molecule itself; test: SEC
[1] = biological target: 3xFLAG-tagged WT human TRPA1 (human, UniProt O75762 1-1119); test: co-IP + SEC

Binder	stoichiometry N (FLAG-MBP-WT human TRPA1)	stoichiometry N (SEC)	stoichiometry N [1]
B1	1.3 R919* subunits per WT subunit	–	–
B2	–	4	4
